The supplement of paper PMC10567573

B1: KLHL13 (parent)
chain: GVSKVGLRKIIDFIYTAKLSLNMD
B2: KLHL12 (parent)
chain: LDYTADEDGVWYSVAPMNVRRGLA

Variants of: B1
Test: protein stability index of a GFP-peptide fusion (GPS, HEK-293T) (PSI 1-6); higher = more stable
Settings: c terminus: a fixed tail appended
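Further: lentivirally expressed fusions sorted by FACS into six bins by GFP to DsRed ratio, PSI derived from sequencing read proportions per bin multiplied by bin number.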

Protein stability index, by site and new letter:
G6: L 4.85, E 1.47, H 3.04, C 1.49, N 2.05, P 2.12, W 2.32, K 2.84, Q 2.4, R 2.15, S 2.08, V 3.71, Y 3.06
G1: P 1.75, T 3.89, K 2.08, Q 2.05, A 3.93, H 2.49, W 3.32, S 3.05, N 2.53, L 2.96
F13: T 1.93, S 1.44, Q 1.04, H 2.62, R 1.54, D 1.7, K 1.66, N 1.48, G 2.41, P 2.22, C 2.83, V 3.34, M 2.74, E 1.43
L19: V 3.11, W 2.93, S 1.63, C 2.34, Q 2.21, D 1.36, T 2.95, N 3.62, H 1.87
S3: M 2.17, W 2.47, D 2.68, H 3.22, K 2.31, T 2.37, Y 3.66, R 2.45, V 4.55, G 1.62, Q 2.92
D12: Q 2.36, G 3.19, H 1.92, N 1.55, M 1.62, I 2.57, S 3.08, L 2.27, T 2.9, E 2.27, V 1.94
K18: S 3.44, H 2.72, R 2.63, W 2.7, P 2.89, T 2.15, L 1.76, Q 3.22, G 2.55, Y 2.88, C 2.46, M 2.52, N 2.17
V2: G 3.41, T 4.01, N 2.03, C 1.52, Y 2.11, D 3.51, K 2.38, P 1.83, H 1.7, S 1.79, F 1.65
V5: M 2.27, I 1.5, R 3.04, G 3.21, C 2.67, L 2.12, N 3.8, T 4.05, E 1.83, A 2.64, F 4.57, P 2.58, S 3.47, W 3.14, Q 3.5, Y 2.06
N22: L 2.11, H 2.41, V 1.32, I 2.68, A 3.65, E 2.73, W 1.31, D 2.3, S 2.36, Y 1.99, Q 1.9, F 3.75, M 2.26, P 4.34, R 2.09
D24: M 2.28, P 2.88, K 1.71, N 2.74, A 3.2, Y 2.2, F 2.82, R 3.43, H 3.01, V 2.49, G 3.65, T 3.01, Q 2.15, L 2.01
I10: T 2.02, G 2.31, R 2.74, W 4.2, D 1.55, K 2.98, P 1.81, E 1.48, N 1.63, H 1.14, C 1.53, A 2.04, Y 3.8, S 4.37, Q 2.35
K9: L 2.37, C 3.38, S 2.4, I 3.12, Q 2.03, A 4.24, M 2.42, E 1.78, G 1.91, Y 2.81, V 4.21, H 2.64, D 3.8, N 3.3
L7: I 3.25, A 2.27, S 2.94, G 3.85, H 3.17, R 2.5, W 2.05, C 3.38, K 1.86, Q 2.97, F 2.93, T 2.6
L21: D 1.8, F 2.21, N 1.83, E 1.53, S 2.72, C 2.69, P 1.86, W 1.96, Q 3.01, A 1.94
K4: E 2.77, F 3.29, H 2.18, I 1.94, W 2.34, Y 1.85, S 2.88, M 2.42, A 3.12, D 4.34, N 2.24, L 1.93, R 2.95, T 4.12, C 2.64
T16: V 1.81, M 1.95, W 1.79, Y 2.74, P 2.57, I 2.72, G 2.86, R 2.69, E 1.95, H 1.63
R8: C 2.46, A 5.37, E 1.49, W 3.31, M 1.69, K 4.72, I 2.55, D 3.02, H 2.07, P 1.92, G 2.07, L 4.65
Y15: Q 1.36, N 4.89, P 1.84, D 1.8, M 2.48, F 3.84, T 2.52, G 2.51, R 4.12, L 2.07, A 3.72
I14: A 2.38, G 3.7, V 2.43, K 1.94, M 3.04, H 1.34, W 3.72, D 1.86, C 2.44, P 2.12, Q 2.24, S 2.02, Y 2.27, E 2.31, N 2.15, L 2.9
I11: P 1.97, E 2.1, L 3.57, A 1.87, G 2.63, H 4.7, Q 1.61, M 3.33, S 1.89, N 2.24, D 2.14, K 4.1, Y 4.12
S20: N 3.26, Q 1.68, I 2.04, P 2.25, E 4.11, A 3.46, W 1.85, K 3.46, V 1.96, L 2.67, R 2.11, H 2.7
A17: E 1.81, Y 3.45, S 1.75, R 2.95, P 2.39, V 1.56, K 2.73, G 3.4, W 3.08
M23: C 2.45, T 2.19, A 2.48, Y 3.73, K 1, Q 1.55, S 1.79, R 3.14, D 2.09, N 1.53, G 3.36, H 3.04

Variants of: B2
Test: as above
Settings: c terminus: a fixed tail appended

Protein stability index, by site and new letter:
P16: R 2.25
L1: W 2.53, K 2.75
Y12: N 3.45, F 2.23
R21: V 2.19, M 1.32
V10: W 1.63, P 2.47
M17: P 2.58, E 2.59, D 2.47, R 3.34
G9: T 2.15, H 2.2, Y 2.37
D6: T 1.91, P 2.46
G22: L 2
E7: R 2.77
D8: Q 2.49, I 1.96
A24: Q 2.03
V14: S 2.96, M 2.33
A15: F 1.82, C 1.74
R20: P 1.81
S13: K 2.29
D2: R 1.93
A5: D 2.76, G 2.08
L23: T 2.19
Y3: L 2.22
W11: T 2.99
T4: D 2.41
